Results published in US20260167699A1 (Chugai, published 2026).

T1: FcγRIIa(R) extracellular domain, C-terminal His tag (human, UniProt P12318 34-217)
T1 construct: extracellular domain; Allotype R131; also called 2aR
T1 sequence: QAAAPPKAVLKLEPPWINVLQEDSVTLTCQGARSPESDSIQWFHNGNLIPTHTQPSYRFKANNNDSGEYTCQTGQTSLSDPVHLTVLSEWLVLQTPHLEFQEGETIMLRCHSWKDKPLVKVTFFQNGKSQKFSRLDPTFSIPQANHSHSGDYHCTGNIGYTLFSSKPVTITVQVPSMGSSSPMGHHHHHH

T2: FcγRIIb extracellular domain, C-terminal His tag (human, UniProt P31994 43-217)
T2 construct: extracellular domain; also called 2b
T2 sequence: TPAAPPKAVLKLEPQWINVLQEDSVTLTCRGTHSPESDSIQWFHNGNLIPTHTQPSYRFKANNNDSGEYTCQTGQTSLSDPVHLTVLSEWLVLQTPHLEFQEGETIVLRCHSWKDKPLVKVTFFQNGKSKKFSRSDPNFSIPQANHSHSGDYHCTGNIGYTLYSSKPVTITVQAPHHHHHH

T3: FcγRIIa(H) extracellular domain, C-terminal His tag (human, UniProt P12318 34-217)
T3 construct: extracellular domain; Allotype H131; also called 2aH
T3 sequence: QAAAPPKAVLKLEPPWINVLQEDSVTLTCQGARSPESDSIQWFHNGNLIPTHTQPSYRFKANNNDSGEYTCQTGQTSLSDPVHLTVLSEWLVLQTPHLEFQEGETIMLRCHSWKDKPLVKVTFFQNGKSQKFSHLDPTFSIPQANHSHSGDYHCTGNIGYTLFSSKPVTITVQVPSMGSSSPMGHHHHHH


Columns and labels:
Assay in all cases: SPR (Biacore); binding relative to GpH7-A5/GpH7-B3/GpL16-k0 x100;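 further: antibodies captured on a chip surface, soluble FcγR flowed over in HBS-EP+ running buffer at 25 °C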
[1] = molecular target: T1, FcγRIIa(R) extracellular domain, …
[2] = molecular target: T2, FcγRIIb extracellular domain, …
[3] = molecular target: T3, FcγRIIa(H) extracellular domain, …
[4] = molecular target: T4, FcγRIIIa extracellular domain, C-terminal His tag (human, UniProt P08637 17-208)
T4 construct: extracellular domain; also called 3a

[5] = molecular target: T5, FcγRIa extracellular domain, C-terminal His tag (human, UniProt P12314 16-292)
T5 construct: extracellular domain; also called 1a
T5 sequence (P12314 other isoform, or with tags, fused parts or gaps): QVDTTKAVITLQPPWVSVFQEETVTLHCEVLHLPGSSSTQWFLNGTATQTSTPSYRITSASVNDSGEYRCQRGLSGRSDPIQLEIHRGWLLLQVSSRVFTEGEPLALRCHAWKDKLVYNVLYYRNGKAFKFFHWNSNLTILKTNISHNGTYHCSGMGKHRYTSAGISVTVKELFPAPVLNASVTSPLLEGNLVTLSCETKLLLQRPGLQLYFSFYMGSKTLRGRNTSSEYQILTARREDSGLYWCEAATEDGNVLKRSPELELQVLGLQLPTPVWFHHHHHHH

T4 sequence (P08637 other isoform, or with tags, fused parts or gaps): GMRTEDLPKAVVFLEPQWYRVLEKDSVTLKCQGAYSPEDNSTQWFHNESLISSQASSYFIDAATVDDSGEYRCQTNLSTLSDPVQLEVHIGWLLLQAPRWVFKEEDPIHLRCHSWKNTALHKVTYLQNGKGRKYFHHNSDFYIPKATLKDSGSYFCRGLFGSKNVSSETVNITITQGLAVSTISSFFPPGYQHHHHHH

Row | Binder | He/Con 2aR [1] [%] | He/Con 2b [2] [%] | He/Con 2aH [3] [%] | He/Con 3a [4] [%] | He/Con 1a [5] [%]
1 | GpH7-A5/GpH7-B3 variant K326_06M/GpL16-k0 (antibody, human IgG1, kappa, He Ab: anti-glypican 3 IgG1 heterodimer, only the GpH7-B3 chain mutated; position in EU numbering; also called He Ab) heavy 1: not shown heavy 2: not shown light: DIVMTQSPLSLPVTPGEPASISCQASESLVHSNRNTYLHWYLQKPGQSPQLLIYKVSNRFSGVPDRFSGSGSGTDFTLKISRVEAEDVGVYYCSQNTHVPPTFGQGTKVEIERTVAAPSVFIFPPSDEQLKSGTASVVCLLNNFYPREAKVQWKVDNALQSGNSQESVTEQDSKDSTYSLSSTLTLSKADYEKHKVYACEVTHQGLSSPVTKSFNRGEC | 132 | 185 | 108 | 127 | 108
2 | GpH7-A5/GpH7-B3 variant K326_12R/GpL16-k0 (antibody, human IgG1, kappa, He Ab: anti-glypican 3 IgG1 heterodimer, only the GpH7-B3 chain mutated; position in EU numbering; also called He Ab) heavy 1: not shown heavy 2: not shown light: DIVMTQSPLSLPVTPGEPASISCQASESLVHSNRNTYLHWYLQKPGQSPQLLIYKVSNRFSGVPDRFSGSGSGTDFTLKISRVEAEDVGVYYCSQNTHVPPTFGQGTKVEIERTVAAPSVFIFPPSDEQLKSGTASVVCLLNNFYPREAKVQWKVDNALQSGNSQESVTEQDSKDSTYSLSSTLTLSKADYEKHKVYACEVTHQGLSSPVTKSFNRGEC | 98.6 | 100 | 105 | 101 | 105
3 | GpH7-A5/GpH7-B3 variant K326_10E/GpL16-k0 (antibody, human IgG1, kappa, He Ab: anti-glypican 3 IgG1 heterodimer, only the GpH7-B3 chain mutated; position in EU numbering; also called He Ab) heavy 1: not shown heavy 2: not shown light: DIVMTQSPLSLPVTPGEPASISCQASESLVHSNRNTYLHWYLQKPGQSPQLLIYKVSNRFSGVPDRFSGSGSGTDFTLKISRVEAEDVGVYYCSQNTHVPPTFGQGTKVEIERTVAAPSVFIFPPSDEQLKSGTASVVCLLNNFYPREAKVQWKVDNALQSGNSQESVTEQDSKDSTYSLSSTLTLSKADYEKHKVYACEVTHQGLSSPVTKSFNRGEC | 142 | 224 | 106 | 138 | 109
4 | GpH7-A5/GpH7-B3 variant K326_18N/GpL16-k0 (antibody, human IgG1, kappa, He Ab: anti-glypican 3 IgG1 heterodimer, only the GpH7-B3 chain mutated; position in EU numbering; also called He Ab) heavy 1: not shown heavy 2: not shown light: DIVMTQSPLSLPVTPGEPASISCQASESLVHSNRNTYLHWYLQKPGQSPQLLIYKVSNRFSGVPDRFSGSGSGTDFTLKISRVEAEDVGVYYCSQNTHVPPTFGQGTKVEIERTVAAPSVFIFPPSDEQLKSGTASVVCLLNNFYPREAKVQWKVDNALQSGNSQESVTEQDSKDSTYSLSSTLTLSKADYEKHKVYACEVTHQGLSSPVTKSFNRGEC | 110 | 118 | 113 | 134 | 110
5 | GpH7-A5/GpH7-B3 variant K326_13S/GpL16-k0 (antibody, human IgG1, kappa, He Ab: anti-glypican 3 IgG1 heterodimer, only the GpH7-B3 chain mutated; position in EU numbering; also called He Ab) heavy 1: not shown heavy 2: not shown light: DIVMTQSPLSLPVTPGEPASISCQASESLVHSNRNTYLHWYLQKPGQSPQLLIYKVSNRFSGVPDRFSGSGSGTDFTLKISRVEAEDVGVYYCSQNTHVPPTFGQGTKVEIERTVAAPSVFIFPPSDEQLKSGTASVVCLLNNFYPREAKVQWKVDNALQSGNSQESVTEQDSKDSTYSLSSTLTLSKADYEKHKVYACEVTHQGLSSPVTKSFNRGEC | 119 | 139 | 110 | 118 | 106
6 | GpH7-A5/GpH7-B3 variant K326_19Q/GpL16-k0 (antibody, human IgG1, kappa, He Ab: anti-glypican 3 IgG1 heterodimer, only the GpH7-B3 chain mutated; position in EU numbering; also called He Ab) heavy 1: not shown heavy 2: not shown light: DIVMTQSPLSLPVTPGEPASISCQASESLVHSNRNTYLHWYLQKPGQSPQLLIYKVSNRFSGVPDRFSGSGSGTDFTLKISRVEAEDVGVYYCSQNTHVPPTFGQGTKVEIERTVAAPSVFIFPPSDEQLKSGTASVVCLLNNFYPREAKVQWKVDNALQSGNSQESVTEQDSKDSTYSLSSTLTLSKADYEKHKVYACEVTHQGLSSPVTKSFNRGEC | 124 | 156 | 106 | 117 | 108
7 | GpH7-A5/GpH7-B3 variant K326_09D/GpL16-k0 (antibody, human IgG1, kappa, He Ab: anti-glypican 3 IgG1 heterodimer, only the GpH7-B3 chain mutated; position in EU numbering; also called He Ab) heavy 1: not shown heavy 2: not shown light: DIVMTQSPLSLPVTPGEPASISCQASESLVHSNRNTYLHWYLQKPGQSPQLLIYKVSNRFSGVPDRFSGSGSGTDFTLKISRVEAEDVGVYYCSQNTHVPPTFGQGTKVEIERTVAAPSVFIFPPSDEQLKSGTASVVCLLNNFYPREAKVQWKVDNALQSGNSQESVTEQDSKDSTYSLSSTLTLSKADYEKHKVYACEVTHQGLSSPVTKSFNRGEC | 142 | 216 | 115 | 148 | 109
8 | GpH7-A5/GpH7-B3 variant K326_08L/GpL16-k0 (antibody, human IgG1, kappa, He Ab: anti-glypican 3 IgG1 heterodimer, only the GpH7-B3 chain mutated; position in EU numbering; also called He Ab) heavy 1: not shown heavy 2: not shown light: DIVMTQSPLSLPVTPGEPASISCQASESLVHSNRNTYLHWYLQKPGQSPQLLIYKVSNRFSGVPDRFSGSGSGTDFTLKISRVEAEDVGVYYCSQNTHVPPTFGQGTKVEIERTVAAPSVFIFPPSDEQLKSGTASVVCLLNNFYPREAKVQWKVDNALQSGNSQESVTEQDSKDSTYSLSSTLTLSKADYEKHKVYACEVTHQGLSSPVTKSFNRGEC | 131 | 198 | 96.5 | 126 | 105
9 | GpH7-A5/GpH7-B3 variant K326_07I/GpL16-k0 (antibody, human IgG1, kappa, He Ab: anti-glypican 3 IgG1 heterodimer, only the GpH7-B3 chain mutated; position in EU numbering; also called He Ab) heavy 1: not shown heavy 2: not shown light: DIVMTQSPLSLPVTPGEPASISCQASESLVHSNRNTYLHWYLQKPGQSPQLLIYKVSNRFSGVPDRFSGSGSGTDFTLKISRVEAEDVGVYYCSQNTHVPPTFGQGTKVEIERTVAAPSVFIFPPSDEQLKSGTASVVCLLNNFYPREAKVQWKVDNALQSGNSQESVTEQDSKDSTYSLSSTLTLSKADYEKHKVYACEVTHQGLSSPVTKSFNRGEC | 141 | 223 | 104 | 153 | 106
10 | GpH7-A5/GpH7-B3 variant K326_14T/GpL16-k0 (antibody, human IgG1, kappa, He Ab: anti-glypican 3 IgG1 heterodimer, only the GpH7-B3 chain mutated; position in EU numbering; also called He Ab) heavy 1: not shown heavy 2: not shown light: DIVMTQSPLSLPVTPGEPASISCQASESLVHSNRNTYLHWYLQKPGQSPQLLIYKVSNRFSGVPDRFSGSGSGTDFTLKISRVEAEDVGVYYCSQNTHVPPTFGQGTKVEIERTVAAPSVFIFPPSDEQLKSGTASVVCLLNNFYPREAKVQWKVDNALQSGNSQESVTEQDSKDSTYSLSSTLTLSKADYEKHKVYACEVTHQGLSSPVTKSFNRGEC | 128 | 168 | 119 | 140 | 109
11 | GpH7-A5/GpH7-B3 variant L328_02A/GpL16-k0 (antibody, human IgG1, kappa, He Ab: anti-glypican 3 IgG1 heterodimer, only the GpH7-B3 chain mutated; position in EU numbering; also called He Ab) heavy 1: not shown heavy 2: not shown light: DIVMTQSPLSLPVTPGEPASISCQASESLVHSNRNTYLHWYLQKPGQSPQLLIYKVSNRFSGVPDRFSGSGSGTDFTLKISRVEAEDVGVYYCSQNTHVPPTFGQGTKVEIERTVAAPSVFIFPPSDEQLKSGTASVVCLLNNFYPREAKVQWKVDNALQSGNSQESVTEQDSKDSTYSLSSTLTLSKADYEKHKVYACEVTHQGLSSPVTKSFNRGEC | 150 | 180 | 154 | 81.3 | 101
12 | GpH7-A5/GpH7-B3 variant K326_16H/GpL16-k0 (antibody, human IgG1, kappa, He Ab: anti-glypican 3 IgG1 heterodimer, only the GpH7-B3 chain mutated; position in EU numbering; also called He Ab) heavy 1: not shown heavy 2: not shown light: DIVMTQSPLSLPVTPGEPASISCQASESLVHSNRNTYLHWYLQKPGQSPQLLIYKVSNRFSGVPDRFSGSGSGTDFTLKISRVEAEDVGVYYCSQNTHVPPTFGQGTKVEIERTVAAPSVFIFPPSDEQLKSGTASVVCLLNNFYPREAKVQWKVDNALQSGNSQESVTEQDSKDSTYSLSSTLTLSKADYEKHKVYACEVTHQGLSSPVTKSFNRGEC | 115 | 133 | 102 | 106 | 109
13 | GpH7-A5/GpH7-B3 variant K326_15Y/GpL16-k0 (antibody, human IgG1, kappa, He Ab: anti-glypican 3 IgG1 heterodimer, only the GpH7-B3 chain mutated; position in EU numbering; also called He Ab) heavy 1: not shown heavy 2: not shown light: DIVMTQSPLSLPVTPGEPASISCQASESLVHSNRNTYLHWYLQKPGQSPQLLIYKVSNRFSGVPDRFSGSGSGTDFTLKISRVEAEDVGVYYCSQNTHVPPTFGQGTKVEIERTVAAPSVFIFPPSDEQLKSGTASVVCLLNNFYPREAKVQWKVDNALQSGNSQESVTEQDSKDSTYSLSSTLTLSKADYEKHKVYACEVTHQGLSSPVTKSFNRGEC | 131 | 179 | 102 | 124 | 111
